Laboratory results reported in US9457082B2, “Liposome including complex of hydrophobic active ingredient and polypeptide and use of the liposome” (Samsung Electronics Co., Ltd., priority 2013, dated 2016).

System: HepG2 liver carcinoma cells
Assay: Cytotoxicity, cell viability by CCK-8 kit
Assay type: cell-based
Conditions: about 5,000 HepG2 cells, 37° C., 46 hours
Experimental: The liposomes prepared in the same manner as in Example 1 were incubated with cells to confirm cell proliferation.
The liposomes prepared in the same manner as in Example 1 were added in different concentrations to about 5,000 HepG2 liver carcinoma cells, followed by being incubated at a temperature of 37° C. for 46 hours. The viability of the cultured cells was measured using a CCK-8 kit (Dojindo), and the results were shown in FIG. 7 (●: albumin, ▪: complex containing SRF and albumin).

Substance: albumin: albumin alone, control in the cytotoxicity test; Bovine Serum Albumin in Example 1
- toxicity (cell viability): not toxic
